Columns and labels:
[1] = target: human PDL1-Fc chimeric protein (human, UniProt Q9NZQ7 19-238, limits assumed); experiment: SPR T200, antigen-Fc captured, molecule as analyte
Method: (§1) Affinity to PDL1 of the different species was determined by SPR measurements using a Biacore T200 device (GE Healthcare). An antibody specific for the Fc region of human IgGs was immobilized on a sensor chip (CM5 sensor chip, GE Healthcare) by amine-coupling. For all formats, with the exception of the Fc containing Morrison formats, PDL1-Fc chimeric protein from different species were captured by the immobilized antibody. Three-fold serial dilutions of the molecules specific for PDL1 (0.12-90 nM) were injected into the flow cells for three minutes and dissociation was monitored for 10 minutes. After each injection cycle, surfaces were regenerated with one injection of a 3 M MgCl₂ solution. The apparent dissociation (kd) and association (kₐ) rate constants and the apparent dissociation equilibrium constant (KD) were calculated using one-to-one Langmuir binding model. Affinity to CD137 of the different species was determined using the identical setup as for PDL1 with the exception that CD137-Fc chimeric proteins from different species were captured by the immobilized antibody.

[2] = target: T1, Fc tagged human CD137 (R&D Systems, cat. 838-4B-100) (human, UniProt Q07011 24-186); experiment: SPR T200, antigen-Fc captured, molecule as analyte
T1 construct: also called CD137 Fc chimera; human CD137-Fc chimeric protein
Method: as §1

[3] = target: T2, mouse serum albumin (mouse, UniProt P07724 25-608); experiment: SPR T200, SA coupled to chip, pH 5.5
T2 construct: also called mouse SA; MSA
Method: (§2) Affinity of molecules to serum albumin (SA) of the different species was determined by SPR measurements using a Biacore T200 device (GE Healthcare). SA was directly coupled to a CM5 sensor chip (GE Healthcare) using amine coupling chemistry. […] The assay was run in a 1×PBS-Tween buffer at pH 5.5.

[4] = target: T3, human serum albumin (human, UniProt P02768 25-609); experiment: SPR T200, SA coupled to chip, pH 5.5
T3 construct: also called human SA; HSA
Method: as §2

[5] = target: T4, human CD137 expressed on Jurkat cells (human, UniProt Q07011 24-255); experiment: cell-based or functional assay
[6] = target: T5, mouse Fc-tagged mouse CD137 (R&D Systems, cat. 937-4B-050) (mouse, UniProt P20334 24-187); experiment: SPR T200, antigen-Fc captured, molecule as analyte
T5 construct: also called mouse CD137-Fc chimeric protein
T5 sequence (looked up): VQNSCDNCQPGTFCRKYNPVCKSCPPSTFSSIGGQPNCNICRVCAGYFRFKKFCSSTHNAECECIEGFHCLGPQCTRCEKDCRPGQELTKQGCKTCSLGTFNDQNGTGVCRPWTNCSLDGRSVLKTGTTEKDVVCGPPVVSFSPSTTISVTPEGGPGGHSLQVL
Method: as §1

[7] = target: T6, cynomolgus monkey Fc-tagged CD137 (R&D Systems, cat. 9324-4B-100) (cynomolgus monkey, UniProt A9YYE7 24-186); experiment: SPR T200, antigen-Fc captured, molecule as analyte
T6 construct: also called cynomolgus CD137-Fc chimeric protein
Method: as §1

[8] = target: T4, human CD137 expressed on Jurkat cells; experiment: cell-based or functional assay; remark: listed apart in the source
[9] = target: T4, human CD137 expressed on Jurkat cells; experiment: cell-based or functional assay; remark: listed apart in the source
[10] = target: T4, human CD137 expressed on Jurkat cells; experiment: cell-based or functional assay; remark: listed apart in the source

T6 sequence (A9YYE7 entry or part of it): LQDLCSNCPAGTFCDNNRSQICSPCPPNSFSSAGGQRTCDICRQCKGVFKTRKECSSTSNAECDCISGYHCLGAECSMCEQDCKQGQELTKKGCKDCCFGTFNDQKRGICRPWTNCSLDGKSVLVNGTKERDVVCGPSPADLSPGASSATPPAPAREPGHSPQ

B1: PRO1186 (37-20-B03 sc01 / 38-02-A04 sc01 / 23-13-A01 sc03, scDb-scFv) (other)
chain: DIQMTQSPSSLSASVGDRVTITCQASQSIGTYLAWYQQKPGKAPKLLIYRAFILASGVPSRFSGSGSGTDFTLTISSLQPEDFATYYCQSNFYSDSTTIGPNAFGTGTKVTVLGGGGGSQVQLQESGPGLVKPSETLSLTCKVSGFSFSNSYWICWIRQPPGKGLEWIGCTFVGSSDSTYYANWAKGRVTISVDSSKNQFSLKLSSVTAADTAVYYCARHPSDAVYGYANNLWGQGTLVTVSSGGGGSGGGGSGGGGSGGGGSIQMTQSPSSLSASVGDRVTITCQASQSINNVLAWYQQKPGKAPKLLIYRASTLASGVPSRFSGSGSGTDFTLTISSLQPEDFATYYCQSSYGNYGDFGTGTKVTVLGGGGGSQVQLQESGPGLVKPSETLSLTCKVSGFSFNSDYWIYWIRQPPGKGLEWIGSIYGGSSGNTQYASWAQGRVTISVDSSKNQFSLKLSSVTAADTAVYYCARGYVDYGGATDLWGQGTLVTVSSGGGGSGGGGSVVMTQSPSSLSASVGDRVTITCQASQIISSRSAWYQQKPGQPPKLLIYQASKLASGVPSRFSGSGSGTDFTLTISSLQPEDFATYYCQCTYIDSNFGAFGGGTKLTVLGGGGGSGGGGSGGGGSGGGGSEVQLVESGGGLVQPGGSLRLSCAASGFSFSSSYWICWVRQAPGKGLEWVGCVFTGDGTTYYASWAKGRFTISRDNSKNTVYLQMNSLRAEDTATYFCARPVSVYYYGMDLWGQGTLVTVSS
notes: Trispecific scDb-scFv
B1 gave a Kd [1] of 0.0037 nM, a koff [1] of 2.3e-05 s⁻¹ and a kon [1] of 6.2e+06 M⁻¹ s⁻¹. It also gave a Kd [2] of 2.6 nM, a koff [2] of 0.0005 s⁻¹ and a kon [2] of 190000 M⁻¹ s⁻¹. It also gave a Kd [3] of 43 nM, a koff [3] of 0.0095 s⁻¹ and a kon [3] of 220000 M⁻¹ s⁻¹. For the same binder, the Kd [4] was 2.9 nM, the koff [4] was 0.00072 s⁻¹ and the kon [4] was 250000 M⁻¹ s⁻¹. The “max. activation, HCC827 +IFNg, 24h” value [5] was 129%, the “max. activation, NF-kB reporter gene, CHO-PD-L1, 24h” value [5] was 152% and the “rel. IC50 (urelumab/test), HCC827 +IFNg, 24h” value [5] was 1.88 ratio. For the same binder, the “rel. IC50 (urelumab/test), NF-kB reporter gene, CHO-PD-L1, 24h” value [5] was 0.97 ratio.

B2: PRO1123 (38-02-A04 sc05 IF scDb-i/33_03_G02 sc01 scDb-o) (bispecific antibody)
chain: DIQMTQSPSSLSASVGDRVTITCQASQSINDYLAWYQQKPGKAPKLLIYKASTLASGVPSRFSGSGSGTDFTLTISSLQPEDFATYYCQQGYIITDIDNVFGTGTKVTVLGGGGGSQVQLQESGPGLVKPSETLSLTCKVSGFSFSNSYWICWVRQPPGKGLEWIGCTFVGSSDSTYYANWAKGRVTISVDSSKNQVSLKLSSVTAADTAVYFCARHPSDAVYGYANNLWGQGTLVTVSSGGGGSGGGGSGGGGSGGGGSIQMTQSPSSLSASVGDRVTITCQASQSINNVLAWYQQKPGKPPKLLIYRASTLASGVPSRFSGSGSGTDFTLTISSLQPEDFATYYCQSSYGNYGDFGTGTKVTVLGGGGGSQVQLQESGPGLVKPSETLSLTCKVSGFSFSSGYDMCWIRQPPGKGLEWIGCVVAGSVDITYYASWAKGRVTISVDSSKNQFSLKLSSVTAADTAVYYCARKDAYSDAFNLWGQGTLVTVSS
notes: scDb; also called PR01123
B2 gave a Kd [1] of 0.075 nM, a koff [1] of 0.00017 s⁻¹ and a kon [1] of 2.3e+06 M⁻¹ s⁻¹. For the same binder, the Kd [6] was 410 nM, the koff [6] was 0.027 s⁻¹ and the kon [6] was 65000 M⁻¹ s⁻¹. The Kd [7] was 1.3 nM, the koff [7] was 0.00033 s⁻¹ and the kon [7] was 260000 M⁻¹ s⁻¹. The Kd [2] was 0.88 nM, the koff [2] was 0.00027 s⁻¹ and the kon [2] was 310000 M⁻¹ s⁻¹. For the same binder, the “EC50 NFkB-luciferase, HCC827 with IFNy” value [8] was 11.9 ng/mL, the “Top of curve fit, NFkB-luciferase, HCC827 with IFNy” value [8] was 154 and the “EC50 NFkB-luciferase, HCC827 without IFNy” value [9] was 16.1 ng/mL. The “Top of curve fit, NFkB-luciferase, HCC827 without IFNy” value [9] was 123, the “EC50 NFkB-luciferase, CHO-PDL1 cells” value [10] was 5.75 ng/mL and the “Top of curve fit, NFkB-luciferase, CHO-PDL1 cells” value [10] was 219. For the same binder, the “max. activation, HCC827 +IFNg” value [5] was 154%, the “max. activation, HCC827 -IFNg” value [5] was 123% and the “max. activation, NF-kB reporter gene, CHO-PD-L1” value [5] was 219%. The “rel. IC50 (urelumab/test), HCC827 +IFNg” value [5] was 12.2 ratio, the “rel. IC50 (urelumab/test), HCC827 -IFNg” value [5] was 6.82 ratio and the “rel. IC50 (urelumab/test), NF-kB reporter gene, CHO-PD-L1” value [5] was 18.1 ratio.

B3: PRO1126 (38-02-A04 sc01 scDb-i/33_03_G02 sc03 Full scDb-o) (bispecific antibody)
chain: DFQLTQSPSSLSASVGDRVTITCQASQSINDYLAWYQQKPGKSPKLLIYKASTLASGVPSRFSGSGSGTDFTLTISSLQPEDFATYYCQQGYIITDIDNVFGTGTKVTVLGGGGGSQVQLQESGPGLVKPSETLSLTCKVSGFSFSNSYWICWIRQPPGKGLEWIGCTFVGSSDSTYYANWAKGRVTISVDSSKNQFSLKLSSVTAADTAVYYCARHPSDAVYGYANNLWGQGTLVTVSSGGGGSGGGGSGGGGSGGGGSIQMTQSPSSLSASVGDRVTITCQASQSINNVLAWYQQKPGKAPKLLIYRASTLASGVPSRFSGSGSGTDFTLTISSLQPEDFATYYCQSSYGNYGDFGTGTKVTVLGGGGGSQSQLQESGPGLVKPSETLSLTCKASGFSFSSGYDMCWVRQPPGKGLEWIACVVAGSVDITYYASWAKGRVTISKDSSKNQVSLKLSSVTAADTAVYFCARKDAYSDAFNLWGQGTLVTVSS
notes: scDb; also called PR01126
Work on B3 yielded a Kd [1] of no more than 0.0035 nM, a koff [1] of less than 1e-05 s⁻¹ and a kon [1] of 2.8e+06 M⁻¹ s⁻¹. The binding result [6] was “no binding (tested: 0.12-90 nM)”, the Kd [2] was 3.5 nM and the koff [2] was 0.00075 s⁻¹. For the same binder, the kon [2] was 210000 M⁻¹ s⁻¹, the “EC50 NFkB-luciferase, HCC827 with IFNy” value [8] was 5.48 ng/mL and the “Top of curve fit, NFkB-luciferase, HCC827 with IFNy” value [8] was 208. The “EC50 NFkB-luciferase, HCC827 without IFNy” value [9] was 6.97 ng/mL, the “Top of curve fit, NFkB-luciferase, HCC827 without IFNy” value [9] was 135 and the “EC50 NFkB-luciferase, CHO-PDL1 cells” value [10] was 6 ng/mL. For the same binder, the “Top of curve fit, NFkB-luciferase, CHO-PDL1 cells” value [10] was 242, the “max. activation, HCC827 +IFNg” value [5] was 208% and the “max. activation, HCC827 -IFNg” value [5] was 135%. The “max. activation, NF-kB reporter gene, CHO-PD-L1” value [5] was 242%, the “rel. IC50 (urelumab/test), HCC827 +IFNg” value [5] was 19.7 ratio and the “rel. IC50 (urelumab/test), HCC827 -IFNg” value [5] was 16 ratio. The “rel. IC50 (urelumab/test), NF-kB reporter gene, CHO-PD-L1” value [5] was 14.4 ratio.

B4: PRO963 (38_02_A04 sc01 scDb-i/33-03-G02 sc01 scDb-o/19-01-H04-sc03 scFv) (other)
chain: DIQMTQSPSSLSASVGDRVTITCQASQSINDYLAWYQQKPGKAPKLLIYKASTLASGVPSRFSGSGSGTDFTLTISSLQPEDFATYYCQQGYIITDIDNVFGTGTKVTVLGGGGGSQVQLQESGPGLVKPSETLSLTCKVSGFSFSNSYWICWIRQPPGKGLEWIGCTFVGSSDSTYYANWAKGRVTISVDSSKNQFSLKLSSVTAADTAVYYCARHPSDAVYGYANNLWGQGTLVTVSSGGGGSGGGGSGGGGSGGGGSIQMTQSPSSLSASVGDRVTITCQASQSINNVLAWYQQKPGKAPKLLIYRASTLASGVPSRFSGSGSGTDFTLTISSLQPEDFATYYCQSSYGNYGDFGTGTKVTVLGGGGGSQVQLQESGPGLVKPSETLSLTCKVSGFSFSSGYDMCWIRQPPGKGLEWIGCVVAGSVDITYYASWAKGRVTISVDSSKNQFSLKLSSVTAADTAVYYCARKDAYSDAFNLWGQGTLVTVSSGGGGSGGGGSIQMTQSPSSLSASVGDRVTITCQSSESVYSNNQLSWYQQKPGQPPKLLIYDASDLASGVPSRFSGSGSGTDFTLTISSLQPEDFATYYCAGGFSSSSDTAFGGGTKLTVLGGGGGSGGGGSGGGGSGGGGSEVQLVESGGGLVQPGGSLRLSCAASGFSLSSNAMGWVRQAPGKGLEYIGIISVGGFTYYASWAKGRFTISRDNSKNTVYLQMNSLRAEDTATYFCARDRHGGDSSGAFYLWGQGTLVTVSS
notes: Trispecific scDb-scFv (PDL1 x CD137 x SA); also called PRO096 (= PRO1051)
Work on B4 yielded a Kd [1] of 0.066 nM, a koff [1] of 0.00013 s⁻¹ and a kon [1] of 2e+06 M⁻¹ s⁻¹. It also gave a Kd [2] of 3 nM, a koff [2] of 0.00062 s⁻¹ and a kon [2] of 200000 M⁻¹ s⁻¹. For the same binder, the binding result [3] was “no binding”, the Kd [4] was 2.8 nM and the koff [4] was 0.0003 s⁻¹. The kon [4] was 110000 M⁻¹ s⁻¹.
